Source: PMC7641760, “Evolution of a highly functional circular DNA aptamer in serum”

Experiments:
human alpha-thrombin [1] = biological target: T1, human alpha-thrombin (Homo sapiens, UniProt P00734;P00734 328-363;364-622); assay: EMSA; EMSA: 1x binding buffer (PBSMT pH 7.2: 137 mM NaCl, 2.68 mM KCl, 8.1 mM Na2HPO4, 1.76 mM KH2PO4, 1 mM MgCl2, 0.025% Tween-20), <50 pM 32P-DNA, 30 min; gel 10% n
[2] = biological target: alpha-thrombin (light; heavy chain) (Homo sapiens (Human), UniProt P00734;P00734 328-363;364-622, N-glycosylated (plasma); interchain disulfide); assay: EMSA; PBS pH 7.2, 1 mM MgCl2, 0.025% Tween-20; DNA <50 pM; details: copies: 1;1; label: 32P
human alpha-thrombin [3] = biological target: T1, human alpha-thrombin; assay: competition; displaces 32P-CTBA4T (500 pM, thrombin 50 pM) at high concentration; exosite I; EMSA: 1x binding buffer (PBSMT pH 7.2: 137 mM NaCl, 2.68 mM KCl, 8.1 mM Na2HPO4, 1.76 mM KH2PO4, 1 mM MgCl2, 0.025% Tween-20), <50 pM 32P-DNA, 30 min; gel 10% n

B1: CTBA4T-B1 (structured_DNA)
DNA: ATCTCGAGTCATAGGGGGCGCGAACATACGCGGTTGGTGTGGTTGGCTGACTCGT
modifications: circular (5'-3' ligated)
Kd (human alpha-thrombin [1]): 0.019 nM

B2: CTBA4T (structured_DNA)
DNA: ATCTCGACTAGTCATAGGGGGCGCGAACATACGCGGTTGGTGTGGTTGGCTGACAATACTCGT
modifications: circular (5'-3' ligated)
Kd (human alpha-thrombin [1]): 0.023 nM

B3: CTBA4T (structured_DNA)
DNA: B2 DNA
modifications: circular (3'-5' ligated)
Kd [2]: 0.023 nM

GGTTGGTGTGGTTGG (structured_DNA) [TBA15]
binding result (human alpha-thrombin [3]): binds
